From paper PMC3369931

Experiments:
Assay in all cases: EMSA
[1] = test system: EutV ANTAR (Enterococcus faecalis (V583?)); details: 10 mM Mg2+; 50 mM Hepes pH 7.5, 150 mM NaCl, 10 mM MgCl2, 2.5 ng/ul yeast tRNA, ~2 fmol RNA in 10 ul, 30 min at 25 C; EMSA on 5% native TBE gel, or DRaCALA on …
[2] = test system: EutV full length (Enterococcus faecalis (V583?)); details: unphosphorylated; 10 mM Mg2+; 50 mM Hepes pH 7.5, 150 mM NaCl, 10 mM MgCl2, 2.5 ng/ul yeast tRNA, ~2 fmol RNA in 10 ul, 30 min at 25 C; EMSA on 5% native TBE gel, or DRaCALA on …
[3] = test system: EutV ANTARcc (Enterococcus faecalis (V583?)); details: 10 mM Mg2+; 50 mM Hepes pH 7.5, 150 mM NaCl, 10 mM MgCl2, 2.5 ng/ul yeast tRNA, ~2 fmol RNA in 10 ul, 30 min at 25 C; EMSA on 5% native TBE gel, or DRaCALA on …

Sequence “GGGCAAAGAAUCAGAAACACAAUGGCGUGUUUUAACAAUCGGCAAAGGAGCCCAAGACUAAGUACGUG [eutP 5' leader dual hairpin RNA, wild type]” has a binding signal (fold weaker than ANTARcc) [1] of 100, a Kd [2] of 10 µM and a Kd [3] of 0.7 µM.
